Target: T1, PLY (W433F) toxoid (Streptococcus pneumoniae, UniProt P0C2J9 2-471)
T1 construct: also called Pdb PLY (W433F); Pdb (W433F)
Assay: immunofluorescence co-localization in human DCs

B1: Mannose receptor C type 1 on human monocyte-derived dendritic cells (receptor)
chain: LLDTRQFLIYNEDHKRCVDAVSPSAVQTAACNQDAESQKFRWVSESQIMSVAFKLCLGVPSKTDWVAITLYACDSKSEFQKWECKNDTLLGIKGEDLFFNYGNRQEKNIMLYKGSGLWSRWKIYGTTDNLCSRGYEAMYTLLGNANGATCAFPFKFENKWYADCTSAGRSDGWLWCGTTTDYDTDKLFGYCPLKFEGSESLWNKDPLTSVSYQINSKSALTWHQARKSCQQQNAELLSITEIHEQTYLTGLTSSLTSGLWIGLNSLSFNSGWQWSDRSPFRYLNWLPGSPSAEPGKSCVSLNPGKNAKWENLECVQKLGYICKKGNTTLNSFVIPSESDVPTHCPSQWWPYAGHCYKIHRDEKKIQRDALTTCRKEGGDLTSIHTIEELDFIISQLGYEPNDELWIGLNDIKIQMYFEWSDGTPVTFTKWLRGEPSHENNRQEDCVVMKGKDGYWADRGCEWPLGYICKMKSRSQGPEIVEVEKGCRKGWKKHHFYCYMIGHTLSTFAEANQTCNNENAYLTTIEDRYEQAFLTSFVGLRPEKYFWTGLSDIQTKGTFQWTIEEEVRFTHWNSDMPGRKPGCVAMRTGIAGGLWDVLKCDEKAKFVCKHWAEGVTHPPKPTTTPEPKCPEDWGASSRTSLCFKLYAKGKHEKKTWFESRDFCRALGGDLASINNKEEQQTIWRLITASGSYHKLFWLGLTYGSPSEGFTWSDGSPVSYENWAYGEPNNYQNVEYCGELKGDPTMSWNDINCEHLNNWICQIQKGQTPKPEPTPAPQDNPPVTEDGWVIYKDYQYYFSKEKETMDNARAFCKRNFGDLVSIQSESEKKFLWKYVNRNDAQSAYFIGLLISLDKKFAWMDGSKVDYVSWATGEPNFANEDENCVTMYSNSGFWNDINCGYPNAFICQRHNSSINATTVMPTMPSVPSGCKEGWNFYSNKCFKIFGFMEEERKNWQEARKACIGFGGNLVSIQNEKEQAFLTYHMKDSTFSAWTGLNDVNSEHTFLWTDGRGVHYTNWGKGYPGGRRSSLSYEDADCVVIIGGASNEAGKWMDDTCDSKRGYICQTRSDPSLTNPPATIQTDGFVKYGKSSYSLMRQKFQWHEAETYCKLHNSLIASILDPYSNAFAWLQMETSNERVWIALNSNLTDNQYTWTDKWRVRYTNWAADEPKLKSACVYLDLDGYWKTAHCNESFYFLCKRSDEIPATEPPQLPGRCPESDHTAWIPFHGHCYYIESSYTRNWGQASLECLRMGSSLVSIESAAESSFLSYRVEPLKSKTNFWIGLFRNVEGTWLWINNSPVSFVNWNTGDPSGERNDCVALHASSGFWSNIHCSSYKGYICKRPKIIDAKPTHELLTTKADTRKMDPSKPSSNVAGVVIIVILLILTGAGLAAYFFYKKRRVHLPQEGAFENTLYFNSQSSPGTSDMKDLVGNIEQNEHSVI
notes: also called MRC-1
  binding result: no binding (tested: 0.2 µg/ml)
